From the supplement of paper PMC10567573

B1: SEC22B (parent)
chain: AKQLFRKLNEQSPTRCTLEAGAMT

Variants of: B1
Test: protein stability index of a GFP-peptide fusion (GPS, HEK-293T) (PSI 1-6); higher = more stable
Conditions: c terminus: a fixed tail appended
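Further: lentivirally expressed fusions sorted by FACS into six bins by GFP to DsRed ratio, PSI derived from sequencing read proportions per bin multiplied by bin number.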

Protein stability index, by site and new letter:
R15: W 1.97; M 2.71; Y 2.82; L 3.03; H 3.44; G 3.15; S 2.44; P 3; F 2.41; I 2.76; N 3.19; K 3.2; D 4.3; A 3.03; V 3.01; C 2.8; E 2.81; T 2.67; Q 3.55
T24: C 2.26; A 1.82
T17: N 2.22; C 2.4; G 1.69; A 1.81; I 1.86; Y 1.61; L 2.13; P 2.77; R 2.69; K 1.94; V 2.18; F 1.6; E 3.23; W 2.28; Q 2.4; S 1.81; D 3.48; H 2; M 2.46
E10: Q 1.54; Y 3.1; I 2.7; G 2.13; R 2.22; A 1.88; F 2.99; N 1.95; K 1.65; L 1.08; P 1.34; D 2.18; V 1.81; C 1.41; W 1.56; T 2.31; S 2.89; H 2; M 2.72
A22: S 2.27; K 1.79; R 2.14; H 1.82; T 1.84; D 2.33; M 2.07; E 2.53; L 1.58; Q 1.88; Y 2.41; G 2.35; F 1.49; C 2.07; N 2.8; W 3.6; I 2.17; V 1.89; P 2.25
P13: M 1.82; N 1.86; R 2.73; L 2.08; I 1.61; V 2.46; H 1.7; K 1.88; Y 1; E 2.81; T 2.14; G 1.96; C 1.53; Q 1.98; S 1.58; A 2.48; F 1.77; D 3.06
M23: T 2.22; N 2.61; R 2.26; A 2.09; I 2.04; D 2.77; Q 2.81; E 2.59; F 1.72; S 2.7; G 2.85; V 1.81; Y 2.37; H 2.25; C 2.18; K 2.45; W 2.19; P 2.7; L 2.47
K7: C 2.82; M 1.83; S 2.31; I 1.81; N 2.47; R 2; V 2.47; G 2.24; Y 1.52; T 2.54; P 3.33; D 2.7; F 1.67; A 1.97; E 2.89; L 1.69; H 2.64; Q 2.25
G21: D 2.99; V 4.07; M 1.34; Q 1.68; F 2.42; W 1.61; E 2.56; L 2.12; H 1.94; N 2.18; S 2.51; K 2.11; A 1.96; R 2.4; Y 1.95; I 1.88; C 2.58; P 2.38; T 1.86
Q11: T 1.82; I 1.71; C 2.13; S 2.1; D 2.44; E 2.85; V 1.48; A 1.77; M 2.26; H 1.99; R 1.41; P 2.09; N 2.22; K 1.96; G 2.14; Y 1.35; F 1.65; L 1.38; W 1.98
S12: M 2.37; F 2.05; N 1.93; L 2.84; C 2.87; K 1.84; R 1.4; E 3.46; Q 2.16; A 1.88; H 2.13; V 1.45; G 2.14; Y 2.43; W 1.77; I 1.86; P 1.68; T 1.96; D 3.51
R6: L 2.99; K 2.07; N 2.05; S 2.53; Y 2.15; M 1.75; V 2.31; T 2.27; Q 2.67; W 2.12; P 2.51
C16: V 2.53; Q 3.47; F 2.15; E 3.85; W 2.52; I 3.12; H 3.47; P 3.96; T 3.64; D 3.93; A 3.07; N 3.74; S 3.66; R 3.27; L 3.19; G 3.93; K 2.95; M 3.08; Y 2.79
T14: M 1.79; E 3.53; P 2.35; A 1.68; Y 1.99; K 2.41; I 2.55; R 2.38; S 1.89; H 1.81; L 1.94; N 1.98; V 2.06; C 3.02; W 2.01; G 1.74; D 3.27; F 1.63; Q 1.86
L18: H 2.64; K 2.7; I 2.35; R 2.46; E 3.47; F 2.09; C 2.66; V 2.78; S 3.26; W 1.94; Q 2.71; Y 1.89; N 3.17; P 3.24; T 2.84; G 2.48; M 2.16; A 3.25; D 3.92
E19: G 2.12; K 2.47; Q 2.87; N 2.95; Y 2.18; P 2.99; S 2.94; R 2.49; C 2.52; H 2.46; M 2.15; D 3.05; W 2.22; V 1.75; F 1.41; A 2.28; I 1.64; L 2.35; T 2.56
A20: V 2.49; R 2.77; W 1.59; M 3.4; D 3.07; S 2.99; F 1.34; E 3.22; K 3.02; H 2.47; T 2.96; L 2.27; N 3.08; G 3.5; Q 2.87; P 2.65; Y 2.01; C 1.64; I 2.27
L8: R 3.84; Q 3.08; H 2.64; V 3.09; A 2.91; C 2.35; E 3.13; Y 1.91; I 2.1; P 2.82; M 2.55; S 2.35; D 3.66; T 2.89; N 2.49; K 3.07; G 2.49; F 2; W 3.19
N9: W 3.44; R 2.88; L 1.35; D 2.98; P 2.59; G 2.47; E 3.56; V 1.39; Y 2.6; M 1.85; K 2.58; I 2.13; T 1.97; A 1.95; C 1.92; H 1.84; Q 2.5; F 2.57; S 1.8
